Experimental data: US20240376151A1, “STAPLED PEPTIDES AND METHODS THEREOF” (FOG PHARMACEUTICALS, INC., priority 2022, published 2024)

Key:
Expi293 cells [1] = experiment: Measurement of the Cell Association of Helicons (mass spectrometry quantification in cells after treatment and wash); type: cell-based; conditions: percentage of Helicons in cells after treatment and wash, 22 hours, n = 2, mean ± SD
Protocol: All samples were analyzed using mass spectrometry.

Expi293 cells [2] = experiment: CellTiter-Glo cell health (ATP levels) during cell association assay; type: cell-based; conditions: reflective of cell health, luminescence Tfinal (22 hours) / Tinitial
CUL1 = molecular target: T1, CUL1 (Homo sapiens, UniProt Q13616, L371D/V367R); experiment: Naive Library Presenter Screening (phage, NGS), CUL1; type: binding; conditions: for interaction data at Target Concentration 10: CUL1 target concentration 10 nM; for interaction data at Target Concentration 30: CUL1 target concentration 30 nM; for interaction data at Target Concentration 100: CUL1 target concentration 100 nM; for interaction data at Target Concentration 300: CUL1 target concentration 300 nM; for interaction data at Target Concentration 1000: CUL1 target concentration 1000 nM
T1 construct: CUL1 (Uniprot ID: Q13616, residue 15-410, V367R/L371D); GST-TEV (N, cleaved yes); made in house; host or cells: E. coli BL21 CodonPlus
T1 sequence (Q13616 15-410 V367R/L371D): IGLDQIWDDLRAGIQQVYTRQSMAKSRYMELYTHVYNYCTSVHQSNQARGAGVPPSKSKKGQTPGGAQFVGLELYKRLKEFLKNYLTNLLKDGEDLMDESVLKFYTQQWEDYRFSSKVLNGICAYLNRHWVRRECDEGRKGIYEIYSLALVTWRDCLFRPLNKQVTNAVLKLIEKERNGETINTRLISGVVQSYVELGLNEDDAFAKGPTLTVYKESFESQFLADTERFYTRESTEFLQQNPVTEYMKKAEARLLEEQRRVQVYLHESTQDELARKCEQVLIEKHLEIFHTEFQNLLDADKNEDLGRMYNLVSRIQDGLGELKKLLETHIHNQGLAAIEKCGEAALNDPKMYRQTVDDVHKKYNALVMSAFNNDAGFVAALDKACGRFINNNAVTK

interaction data at Target Concentration 10 (CUL1) | interaction data at Target Concentration 30 (CUL1) | interaction data at Target Concentration 100 (CUL1) | interaction data at Target Concentration 300 (CUL1) | interaction data at Target Concentration 1000 (CUL1; first column) | interaction data at Target Concentration 1000 (CUL1; second column) | Molecule | Helicon in cells ± SD (%) (Expi293 cells [1]) | CellTiter-Glo fold change ± SD (Expi293 cells [2])
 |  |  |  |  |  | CCCC[C@H](NC(=O)[C@@H](NC(C)=O)C(C)C)C(=O)N[C@@H](CCC(=O)O)C(=O)N[C@]1(C)CCCCCCC=CCCC[C@@](C)(C(=O)N[C@@H](Cc2c[nH]cn2)C(=O)N[C@@H](Cc2ccc(O)cc2)C(=O)N[C@H](C(N)=O)C(C)C)NC(=O)[C@H]([C@@H](C)CC)NC(=O)[C@H](Cc2ccccc2)NC(=O)[C@H](C)NC(=O)[C@H](C)NC(=O)[C@H](CCC(=O)O)NC(=O)[C@H](Cc2ccc(O)cc2)NC1=O (single isomer, unassigned) [FP07856, Ac-Val-nLeu-Glu-R8-Tyr-Glu-Ala-Ala-Phe-Ile-S5-His-Tyr-Val-NH2] | 15.5 ± 0.9 | 1.3 ± 0.12
0 | 0 | 32 | 95 | 114 | 71 | DPAEMQCDYAAILCIVR |  | 
0 | 0 | 57 | 36 | 57 | 151 | DPAYDWCDVAALFCLVE |  | 
0 | 7 | 61 | 73 | 111 | 119 | DPAQILCDLAALYCVVE |  | 
1 | 3 | 77 | 64 | 143 | 126 | DPAMLQCDMAALWCMVS |  | 
0 | 0 | 28 | 83 | 80 | 61 | DPAIIQCDQAALWCVVT |  | 
0 | 0 | 35 | 135 | 151 | 88 | DPAEQMCDIAAVWCLAH |  | 
0 | 2 | 131 | 135 | 403 | 120 | DPAYFACDIAALMCTVH |  | 
3 | 7 | 65 | 242 | 366 | 119 | DPAEVHCDMAALYCIIR |  | 
1 | 1 | 233 | 428 | 586 | 468 | DPAQNDCEVAAFFCWLD |  | 
14 | 19 | 340 | 937 | 1137 | 743 | DPAEQECDHAALWCIVA |  | 

Molecule | interaction data at Target Concentration 10 (CUL1) | interaction data at Target Concentration 30 (CUL1) | interaction data at Target Concentration 100 (CUL1) | interaction data at Target Concentration 300 (CUL1) | interaction data at Target Concentration 1000 (CUL1; first column) | interaction data at Target Concentration 1000 (CUL1; second column) | Helicon in cells ± SD (%) (Expi293 cells [1]) | CellTiter-Glo fold change ± SD (Expi293 cells [2])
DPAVMECDWAATICDIF | 0 | 2 | 154 | 402 | 477 | 419 |  | 
